Assay results published in PMC8861645.

Biological target: PggH (phosphoguanylyl guanylate hydrolase), VCA0593 of Vibrio cholerae (Vibrio cholerae El Tor N16961)
Test: SEC

In the case of “PggH (phosphoguanylyl guanylate hydrolase), VCA0593 of Vibrio cholerae (enzyme)”, the stoichiometry N is reported as 2.
